Values quoted from earlier work, collected in article PMC5290461.

Biological target: integrin beta1A cytoplasmic tail (Homo sapiens) (UniProt P05556)
Test: NMR

UniProt P05556, sequence (P05556 752-798): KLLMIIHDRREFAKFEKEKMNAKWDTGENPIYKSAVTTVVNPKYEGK

Kd [µM] | Substance
491 | talin1 F3 (from UniProt P26039)
652 | talin2 F3 (from UniProt Q71LX4)
